# Measured values from patent US20130288983A1 (Amgen, published 2013).
# T1: Activin A (Homo sapiens (Human), UniProt P08476 311-426)
# T1 sequence: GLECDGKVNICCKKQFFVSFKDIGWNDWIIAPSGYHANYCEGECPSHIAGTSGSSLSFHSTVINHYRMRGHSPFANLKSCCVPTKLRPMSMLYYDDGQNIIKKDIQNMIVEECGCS
# Target: T1, Activin A
# Assay: Biacore SPR grade, COS transient conditioned media, 20 nM activin A
# Protocol: Qualitative BIAcore® Assay. E28 and R40 were substituted respectively with other natural amino acids in fusions with IgG1 Fc as described above. Each vActRIIB-IgG1Fc sample from conditioned media was captured on goat anti-human IgG1 Fc antibody (Jackson Immuno Research, cat#109-005-098, lot 63550) coated CMS surface. 20 nM of Activin A was injected over captured sample surfaces using BIACore2000 (BIACore Life Sciences, Piscataway, N.J.). The resulting sensorgrams were normalized to the captured RL (500 RU) of vActRIIB-IgG1Fc variants. The normalized binding response (RU) for some variants are shown in Table 2, and is further described below. Relative binding affinity for activin was also determined by Biacore measurements using conditioned media obtained from mammalian cell expression. Activin A (20 nM) was used to capture soluble receptor polypeptide in the conditioned media and measured SPR signals were normalized. Normalized SPR of +++++: >60, ++++:40-60, +++:20-40, ++:10-20, +: 5-10, −: <5.
row,Binder,normalized SPR signal
1,"ActRIIB-IgG1 Fc E28F, linker GGGGS (Fc fusion, Tested from conditioned media) SGRGEAETRFCIYYNANWELERTNQSGLERCEGEQDKRLHCYASWRNSSGTIELVKKGCWLDDFNCYDRQECVATEENPQVYFCCCEGNFCNERFTHLPEAGGPEVTYEPPPTAPTGGGGSAPELLGGPSVFLFPPKPKDILMISRTPEVTCVVVDVSHEDPEVKFNWYVGGVEVHNAKTKPREEQYNSTYRVVSVLTVLHQDWLNGKEYKCKVSNKALPAPIEKTISKAKGQPREPQVYTLPPSRDELTKNQVSLTCLVKGFYPSDIAVEWESNGQPENNYKTTPPVLDSDGSFFLYSKLTVDKSRWQQGNVFSCSVMHEALHNHYTQKSLSLSPGK",20 to 40 ru
2,"ActRIIB-IgG1 Fc E28Q, linker GGGGS (Fc fusion, Tested from conditioned media) SGRGEAETRQCIYYNANWELERTNQSGLERCEGEQDKRLHCYASWRNSSGTIELVKKGCWLDDFNCYDRQECVATEENPQVYFCCCEGNFCNERFTHLPEAGGPEVTYEPPPTAPTGGGGSAPELLGGPSVFLFPPKPKDILMISRTPEVTCVVVDVSHEDPEVKFNWYVGGVEVHNAKTKPREEQYNSTYRVVSVLTVLHQDWLNGKEYKCKVSNKALPAPIEKTISKAKGQPREPQVYTLPPSRDELTKNQVSLTCLVKGFYPSDIAVEWESNGQPENNYKTTPPVLDSDGSFFLYSKLTVDKSRWQQGNVFSCSVMHEALHNHYTQKSLSLSPGK",5 to 10 ru
3,"ActRIIB-IgG1 Fc R40M, linker GGGGS (Fc fusion, Tested from conditioned media) SGRGEAETRECIYYNANWELEMTNQSGLERCEGEQDKRLHCYASWRNSSGTIELVKKGCWLDDFNCYDRQECVATEENPQVYFCCCEGNFCNERFTHLPEAGGPEVTYEPPPTAPTGGGGSAPELLGGPSVFLFPPKPKDILMISRTPEVTCVVVDVSHEDPEVKFNWYVGGVEVHNAKTKPREEQYNSTYRVVSVLTVLHQDWLNGKEYKCKVSNKALPAPIEKTISKAKGQPREPQVYTLPPSRDELTKNQVSLTCLVKGFYPSDIAVEWESNGQPENNYKTTPPVLDSDGSFFLYSKLTVDKSRWQQGNVFSCSVMHEALHNHYTQKSLSLSPGK",5 to 10 ru
4,"ActRIIB-IgG1 Fc E28W, linker GGGGS (Fc fusion, Tested from conditioned media) SGRGEAETRWCIYYNANWELERTNQSGLERCEGEQDKRLHCYASWRNSSGTIELVKKGCWLDDFNCYDRQECVATEENPQVYFCCCEGNFCNERFTHLPEAGGPEVTYEPPPTAPTGGGGSAPELLGGPSVFLFPPKPKDILMISRTPEVTCVVVDVSHEDPEVKFNWYVGGVEVHNAKTKPREEQYNSTYRVVSVLTVLHQDWLNGKEYKCKVSNKALPAPIEKTISKAKGQPREPQVYTLPPSRDELTKNQVSLTCLVKGFYPSDIAVEWESNGQPENNYKTTPPVLDSDGSFFLYSKLTVDKSRWQQGNVFSCSVMHEALHNHYTQKSLSLSPGK",> 60 ru
5,"ActRIIB-IgG1 Fc E28L, linker GGGGS (Fc fusion, Tested from conditioned media) SGRGEAETRLCIYYNANWELERTNQSGLERCEGEQDKRLHCYASWRNSSGTIELVKKGCWLDDFNCYDRQECVATEENPQVYFCCCEGNFCNERFTHLPEAGGPEVTYEPPPTAPTGGGGSAPELLGGPSVFLFPPKPKDILMISRTPEVTCVVVDVSHEDPEVKFNWYVGGVEVHNAKTKPREEQYNSTYRVVSVLTVLHQDWLNGKEYKCKVSNKALPAPIEKTISKAKGQPREPQVYTLPPSRDELTKNQVSLTCLVKGFYPSDIAVEWESNGQPENNYKTTPPVLDSDGSFFLYSKLTVDKSRWQQGNVFSCSVMHEALHNHYTQKSLSLSPGK",5 to 10 ru
6,"ActRIIB-IgG1 Fc E28V, linker GGGGS (Fc fusion, Tested from conditioned media) SGRGEAETRVCIYYNANWELERTNQSGLERCEGEQDKRLHCYASWRNSSGTIELVKKGCWLDDFNCYDRQECVATEENPQVYFCCCEGNFCNERFTHLPEAGGPEVTYEPPPTAPTGGGGSAPELLGGPSVFLFPPKPKDILMISRTPEVTCVVVDVSHEDPEVKFNWYVGGVEVHNAKTKPREEQYNSTYRVVSVLTVLHQDWLNGKEYKCKVSNKALPAPIEKTISKAKGQPREPQVYTLPPSRDELTKNQVSLTCLVKGFYPSDIAVEWESNGQPENNYKTTPPVLDSDGSFFLYSKLTVDKSRWQQGNVFSCSVMHEALHNHYTQKSLSLSPGK",5 to 10 ru
7,"ActRIIB-IgG1 Fc E28K, linker GGGGS (Fc fusion, Tested from conditioned media) SGRGEAETRKCIYYNANWELERTNQSGLERCEGEQDKRLHCYASWRNSSGTIELVKKGCWLDDFNCYDRQECVATEENPQVYFCCCEGNFCNERFTHLPEAGGPEVTYEPPPTAPTGGGGSAPELLGGPSVFLFPPKPKDILMISRTPEVTCVVVDVSHEDPEVKFNWYVGGVEVHNAKTKPREEQYNSTYRVVSVLTVLHQDWLNGKEYKCKVSNKALPAPIEKTISKAKGQPREPQVYTLPPSRDELTKNQVSLTCLVKGFYPSDIAVEWESNGQPENNYKTTPPVLDSDGSFFLYSKLTVDKSRWQQGNVFSCSVMHEALHNHYTQKSLSLSPGK",5 to 10 ru
8,"ActRIIB-IgG1 Fc E28Y, linker GGGGS (Fc fusion, Tested from conditioned media) SGRGEAETRYCIYYNANWELERTNQSGLERCEGEQDKRLHCYASWRNSSGTIELVKKGCWLDDFNCYDRQECVATEENPQVYFCCCEGNFCNERFTHLPEAGGPEVTYEPPPTAPTGGGGSAPELLGGPSVFLFPPKPKDILMISRTPEVTCVVVDVSHEDPEVKFNWYVGGVEVHNAKTKPREEQYNSTYRVVSVLTVLHQDWLNGKEYKCKVSNKALPAPIEKTISKAKGQPREPQVYTLPPSRDELTKNQVSLTCLVKGFYPSDIAVEWESNGQPENNYKTTPPVLDSDGSFFLYSKLTVDKSRWQQGNVFSCSVMHEALHNHYTQKSLSLSPGK",> 60 ru
9,"ActRIIB-IgG1 Fc R40K, linker GGGGS (Fc fusion, Tested from conditioned media) SGRGEAETRECIYYNANWELEKTNQSGLERCEGEQDKRLHCYASWRNSSGTIELVKKGCWLDDFNCYDRQECVATEENPQVYFCCCEGNFCNERFTHLPEAGGPEVTYEPPPTAPTGGGGSAPELLGGPSVFLFPPKPKDILMISRTPEVTCVVVDVSHEDPEVKFNWYVGGVEVHNAKTKPREEQYNSTYRVVSVLTVLHQDWLNGKEYKCKVSNKALPAPIEKTISKAKGQPREPQVYTLPPSRDELTKNQVSLTCLVKGFYPSDIAVEWESNGQPENNYKTTPPVLDSDGSFFLYSKLTVDKSRWQQGNVFSCSVMHEALHNHYTQKSLSLSPGK",10 to 20 ru
10,"ActRIIB-IgG1 Fc E28I, linker GGGGS (Fc fusion, Tested from conditioned media) SGRGEAETRICIYYNANWELERTNQSGLERCEGEQDKRLHCYASWRNSSGTIELVKKGCWLDDFNCYDRQECVATEENPQVYFCCCEGNFCNERFTHLPEAGGPEVTYEPPPTAPTGGGGSAPELLGGPSVFLFPPKPKDILMISRTPEVTCVVVDVSHEDPEVKFNWYVGGVEVHNAKTKPREEQYNSTYRVVSVLTVLHQDWLNGKEYKCKVSNKALPAPIEKTISKAKGQPREPQVYTLPPSRDELTKNQVSLTCLVKGFYPSDIAVEWESNGQPENNYKTTPPVLDSDGSFFLYSKLTVDKSRWQQGNVFSCSVMHEALHNHYTQKSLSLSPGK",10 to 20 ru
11,"ActRIIB-IgG1 Fc E28H, linker GGGGS (Fc fusion, Tested from conditioned media) SGRGEAETRHCIYYNANWELERTNQSGLERCEGEQDKRLHCYASWRNSSGTIELVKKGCWLDDFNCYDRQECVATEENPQVYFCCCEGNFCNERFTHLPEAGGPEVTYEPPPTAPTGGGGSAPELLGGPSVFLFPPKPKDILMISRTPEVTCVVVDVSHEDPEVKFNWYVGGVEVHNAKTKPREEQYNSTYRVVSVLTVLHQDWLNGKEYKCKVSNKALPAPIEKTISKAKGQPREPQVYTLPPSRDELTKNQVSLTCLVKGFYPSDIAVEWESNGQPENNYKTTPPVLDSDGSFFLYSKLTVDKSRWQQGNVFSCSVMHEALHNHYTQKSLSLSPGK",5 to 10 ru
12,"ActRIIB-IgG1 Fc R40H, linker GGGGS (Fc fusion, Tested from conditioned media) SGRGEAETRECIYYNANWELEHTNQSGLERCEGEQDKRLHCYASWRNSSGTIELVKKGCWLDDFNCYDRQECVATEENPQVYFCCCEGNFCNERFTHLPEAGGPEVTYEPPPTAPTGGGGSAPELLGGPSVFLFPPKPKDILMISRTPEVTCVVVDVSHEDPEVKFNWYVGGVEVHNAKTKPREEQYNSTYRVVSVLTVLHQDWLNGKEYKCKVSNKALPAPIEKTISKAKGQPREPQVYTLPPSRDELTKNQVSLTCLVKGFYPSDIAVEWESNGQPENNYKTTPPVLDSDGSFFLYSKLTVDKSRWQQGNVFSCSVMHEALHNHYTQKSLSLSPGK",10 to 20 ru
13,"ActRIIB-IgG1 Fc E28M, linker GGGGS (Fc fusion, Tested from conditioned media) SGRGEAETRMCIYYNANWELERTNQSGLERCEGEQDKRLHCYASWRNSSGTIELVKKGCWLDDFNCYDRQECVATEENPQVYFCCCEGNFCNERFTHLPEAGGPEVTYEPPPTAPTGGGGSAPELLGGPSVFLFPPKPKDILMISRTPEVTCVVVDVSHEDPEVKFNWYVGGVEVHNAKTKPREEQYNSTYRVVSVLTVLHQDWLNGKEYKCKVSNKALPAPIEKTISKAKGQPREPQVYTLPPSRDELTKNQVSLTCLVKGFYPSDIAVEWESNGQPENNYKTTPPVLDSDGSFFLYSKLTVDKSRWQQGNVFSCSVMHEALHNHYTQKSLSLSPGK",10 to 20 ru
14,"ActRIIB-IgG1 Fc R40G, linker GGGGS (Fc fusion, Tested from conditioned media) SGRGEAETRECIYYNANWELEGTNQSGLERCEGEQDKRLHCYASWRNSSGTIELVKKGCWLDDFNCYDRQECVATEENPQVYFCCCEGNFCNERFTHLPEAGGPEVTYEPPPTAPTGGGGSAPELLGGPSVFLFPPKPKDILMISRTPEVTCVVVDVSHEDPEVKFNWYVGGVEVHNAKTKPREEQYNSTYRVVSVLTVLHQDWLNGKEYKCKVSNKALPAPIEKTISKAKGQPREPQVYTLPPSRDELTKNQVSLTCLVKGFYPSDIAVEWESNGQPENNYKTTPPVLDSDGSFFLYSKLTVDKSRWQQGNVFSCSVMHEALHNHYTQKSLSLSPGK",20 to 40 ru
